Test results reported in publication PMC11782696, “Claudin-11 regulates immunological barrier formation and spermatogonial proliferation through stem cell factor” (Communications Biology, 2025).

Target: T1, MBP fusion protein of the PDZ1 domain (aa 19-113) of mouse ZO1 (mouse, UniProt P39447 19-113)
T1 construct: zonula occludens 1 (ZO1), mouse, PDZ1 domain, aa 19-113 of the 1,745-amino-acid protein; Expression vector provided by Masahiko Itoh; also called MBP-zPDZ1; PDZ1 of ZO1; source: E. coli DH5α, purified (amylose resin, eluted with 10 mM maltose)
T1 sequence (looked up): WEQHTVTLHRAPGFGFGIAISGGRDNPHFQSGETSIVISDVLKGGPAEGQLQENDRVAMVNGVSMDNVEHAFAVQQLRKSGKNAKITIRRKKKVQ
Test: pull-down; GST-fused proteins on Glutathione Sepharose 4B beads incubated with eluted MBP-fused proteins at 4 °C overnight in buffer A (50 mM Tris-HCl pH 8.0, 50 mM NaCl, 1 mM EDTA, 1 mM DTT); washed three times; SDS-PAGE and Coomassie Brilliant Blue staining
Settings: both partners purified

B1: GST fusion protein of the C-terminal 29 amino acids of mouse CLDN11 (aa 179-207) (domain or fragment, UniProt Q60771 179-207, looked up)
chain: SGDAQSFGENRFYYSSGSSSPTHAKSAHV
notes: claudin-11 (CLDN11), mouse, C-terminal 29 amino acids, aa 179-207 of the 207-residue protein; also called GST-CL11; claudin-11 C-terminus
- binding result: binds
